Source: patent US20250382354A1

Legend:
Assay in all cases: peptide ELISA
[1] = biological target: HKU4 HR2 peptide (HKU4), A3EX94
[2] = biological target: HKU5 HR2 peptide (HKU5), A3EXD0
[3] = biological target: SARS-CoV-2 HR2 peptide (SARS-CoV-2), P0DTC2
[4] = biological target: HKU9 HR2 peptide (HKU9), A3EXG6
MHV HR2 peptide (MHV) = biological target: MHV HR2 peptide (MHV)
[5] = biological target: Hu_PDCoV FP peptide (Hu_PDCoV)
[6] = biological target: OC43 FP peptide (OC43), P36334
[7] = biological target: SARS-CoV FP peptide (SARS-CoV), P59594
HKU1 FP peptide (HKU1) = biological target: HKU1 FP peptide (HKU1)
229E FP peptide (229E) = biological target: 229E FP peptide (229E)
[8] = biological target: CCoV_HuPn FP peptide (CCoV_HuPn)
[9] = biological target: SARS-CoV-2 FP peptide (SARS-CoV-2)
[10] = biological target: NL63 FP peptide (NL63), Q6Q1S2
[11] = biological target: MERS FP peptide (MERS), K9N5Q8

B1: hr2.094 (antibody, V domains shown)
VH: EVQLVESGGGLVQPGGSLRLSCAASGFTFSTFWMTWVRQAPGKGLEWVANIKSDGSEKYYVDSVKGRFTISRDNAKNSLYLQMNSLRAEDTAVYYCATWFGLHWGQGTLVTVSS
VL: DIVMTQSPDSLAVSLGERASINCKSSQTVLYSSNNKNYLAWYQQKPGQPPKLLIHWASTRDSGVPDRFSGSGSGTDFTLTISSLQAEDVAVYYCQQYHRIPWTFGRGTKVEIK
EC50 [1]: 0.0157 µg/mL | EC50 [2]: 0.0192 µg/mL | EC50 [3]: 0.0835 µg/mL | EC50 [4]: 0.227 µg/mL | EC50 (MHV HR2 peptide (MHV)): 0.0189 µg/mL

B2: fp.009 (antibody, V domains shown)
VH: VQLVESGGGVVQPGTSLTLSCEASGFTFSNYAMHWVRQAPGKGLEWVAIISFDTRNKKFAGSVQGRFSISRDNAKNSIYLQMNNLRPEDTGIYYCARDVFLSDYDSRGFDRTRGGFDYWGQGTLVTVSS
VL: EIVMTQSPATLSVSPGEKATLSCRASESVGSSLAWYQQKLGQAPRLLIYGASTRATGIPARFSGSGSGAEFTLTISSLQSEDFAIYYCQQYGDWPLLTFGGGTKVEIK
EC50 [5]: 0.0276 µg/mL | EC50 [6]: 0.026 µg/mL | EC50 [7]: 0.0251 µg/mL | EC50 (HKU1 FP peptide (HKU1)): 0.0241 µg/mL | EC50 (229E FP peptide (229E)): 0.0236 µg/mL | EC50 [8]: 0.021 µg/mL | EC50 [9]: 0.038 µg/mL | EC50 [10]: 0.0214 µg/mL | EC50 [11]: 0.0346 µg/mL
